Test results published in patent US10941182 (Amgen, dated 2021).
Starred links: 1 amine or outer side, 2 acyl side, 3 side chain; linkers in the order of their positions; H or OH if unused. Non-standard residues stand in square brackets, D forms with d. *: point of attachment. C18 diacid = O=C(O)CCCCCCCCCCCCCCCCC(=O)*; dBip = N[C@H](Cc1ccc(-c2ccccc2)cc1)C(=O)O; Oic = O=C(O)[C@@H]1C[C@@H]2CCCC[C@@H]2N1; dPhe(4-Cl) = N[C@H](Cc1ccc(Cl)cc1)C(=O)O; Heptadecanoyl = CCCCCCCCCCCCCCCCC(=O)*; Phe(4-I) = N[C@@H](Cc1ccc(I)cc1)C(=O)O; γGlu = O=C(O)[C@H](CCC(=O)[*:2])N[*:1]; 2Nal = N[C@@H](Cc1ccc2ccccc2c1)C(=O)O; Pentadecanoyl = CCCCCCCCCCCCCCC(=O)*; NMeR = CN[C@@H](CCCNC(=N)N)C(=O)O; Tridecanoyl = CCCCCCCCCCCCC(=O)*; hArg = N=C(N)NCCCC[C@H](N)C(=O)O; Tic = O=C(O)[C@@H]1Cc2ccccc2CN1; Cha = N[C@@H](CC1CCCCC1)C(=O)O; NMeL = CN[C@@H](CC(C)C)C(=O)O; Nle = CCCC[C@H](N)C(=O)O; Orn = NCCC[C@H](N)C(=O)O; AEEA = NCCOCCOCC(=O)O

How the values were obtained:
human APJ receptor = target: T1, human APJ receptor (human, UniProt P35414 1-380); test: cell-based or functional assay
T1 sequence (looked up): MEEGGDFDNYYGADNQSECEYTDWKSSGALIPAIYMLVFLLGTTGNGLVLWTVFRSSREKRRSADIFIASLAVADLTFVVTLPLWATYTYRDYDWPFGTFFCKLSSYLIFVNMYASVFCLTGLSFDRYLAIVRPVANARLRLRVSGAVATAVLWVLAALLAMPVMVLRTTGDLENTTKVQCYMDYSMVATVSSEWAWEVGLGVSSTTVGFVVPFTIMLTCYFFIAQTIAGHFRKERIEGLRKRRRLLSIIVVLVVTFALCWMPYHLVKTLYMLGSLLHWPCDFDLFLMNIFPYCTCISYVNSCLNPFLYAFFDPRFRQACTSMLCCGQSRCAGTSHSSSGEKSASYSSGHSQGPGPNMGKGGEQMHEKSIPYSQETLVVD

rat APJ receptor = target: T2, rat APJ receptor (rat, UniProt Q9JHG3 1-377); test: cell-based or functional assay
T2 sequence (looked up): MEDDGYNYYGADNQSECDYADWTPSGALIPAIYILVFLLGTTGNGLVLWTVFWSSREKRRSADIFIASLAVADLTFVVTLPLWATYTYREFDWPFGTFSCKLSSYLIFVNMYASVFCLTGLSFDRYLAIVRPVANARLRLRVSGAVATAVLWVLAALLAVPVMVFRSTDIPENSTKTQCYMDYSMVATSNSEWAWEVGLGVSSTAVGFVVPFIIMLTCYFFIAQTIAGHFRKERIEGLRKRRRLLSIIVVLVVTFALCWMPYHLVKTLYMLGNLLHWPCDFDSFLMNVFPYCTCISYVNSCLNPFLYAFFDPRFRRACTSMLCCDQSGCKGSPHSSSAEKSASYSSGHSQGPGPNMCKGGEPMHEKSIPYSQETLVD

B1: apelin polypeptide SEQ ID NO: 262 (peptide)
peptide: Pentadecanoyl-[γGlu][AEEA][AEEA][hArg][dR]Q[hArg]P[dR][NMeL]SHKG[Oic][Phe(4-I)]P[dBip]-OH
SMILES: CCCCCCCCCCCCCCC(=O)N[C@@H](CCC(=O)NCCOCCOCC(=O)NCCOCCOCC(=O)N[C@@H](CCCCNC(=N)N)C(=O)N[C@H](CCCNC(=N)N)C(=O)N[C@@H](CCC(N)=O)C(=O)N[C@@H](CCCCNC(=N)N)C(=O)N1CCC[C@H]1C(=O)N[C@H](CCCNC(=N)N)C(=O)N(C)[C@@H](CC(C)C)C(=O)N[C@@H](CO)C(=O)N[C@@H](Cc1c[nH]cn1)C(=O)N[C@@H](CCCCN)C(=O)NCC(=O)N1[C@H](C(=O)N[C@@H](Cc2ccc(I)cc2)C(=O)N2CCC[C@H]2C(=O)N[C@H](Cc2ccc(-c3ccccc3)cc2)C(=O)O)C[C@@H]2CCCC[C@@H]21)C(=O)O
EC50 Human APJ Receptor (human APJ receptor): 4.42 nM | EC50 Rat APJ Receptor (rat APJ receptor): 6.71 nM

B2: apelin polypeptide SEQ ID NO: 242 (peptide)
peptide: Heptadecanoyl-[γGlu][AEEA][AEEA][hArg][dQ][hArg]P[NMeR][Cha]SHKG[Oic][Nle]P[dPhe(4-Cl)]-OH
SMILES: CCCCCCCCCCCCCCCCC(=O)N[C@@H](CCC(=O)NCCOCCOCC(=O)NCCOCCOCC(=O)N[C@@H](CCCCNC(=N)N)C(=O)N[C@H](CCC(N)=O)C(=O)N[C@@H](CCCCNC(=N)N)C(=O)N1CCC[C@H]1C(=O)N(C)[C@@H](CCCNC(=N)N)C(=O)N[C@@H](CC1CCCCC1)C(=O)N[C@@H](CO)C(=O)N[C@@H](Cc1c[nH]cn1)C(=O)N[C@@H](CCCCN)C(=O)NCC(=O)N1[C@H](C(=O)N[C@@H](CCCC)C(=O)N2CCC[C@H]2C(=O)N[C@H](Cc2ccc(Cl)cc2)C(=O)O)C[C@@H]2CCCC[C@@H]21)C(=O)O
EC50 Human APJ Receptor (human APJ receptor): 2.19 nM | EC50 Rat APJ Receptor (rat APJ receptor): 2.27 nM

B3: apelin polypeptide SEQ ID NO: 244 (peptide)
peptide: Tridecanoyl-[γGlu][AEEA][AEEA]Q[dR]P[NMeR][Cha]SHKG[Oic][Nle]P[Tic]-OH
SMILES: CCCCCCCCCCCCC(=O)N[C@@H](CCC(=O)NCCOCCOCC(=O)NCCOCCOCC(=O)N[C@@H](CCC(N)=O)C(=O)N[C@H](CCCNC(=N)N)C(=O)N1CCC[C@H]1C(=O)N(C)[C@@H](CCCNC(=N)N)C(=O)N[C@@H](CC1CCCCC1)C(=O)N[C@@H](CO)C(=O)N[C@@H](Cc1c[nH]cn1)C(=O)N[C@@H](CCCCN)C(=O)NCC(=O)N1[C@H](C(=O)N[C@@H](CCCC)C(=O)N2CCC[C@H]2C(=O)N2Cc3ccccc3C[C@H]2C(=O)O)C[C@@H]2CCCC[C@@H]21)C(=O)O
EC50 Human APJ Receptor (human APJ receptor): 10.3 nM | EC50 Rat APJ Receptor (rat APJ receptor): 281 nM

B4: apelin polypeptide SEQ ID NO: 257 (peptide)
peptide: Tridecanoyl-[γGlu][AEEA][AEEA][Orn]F[hArg][hArg]QRP[hArg][NMeL]SHKG[Oic][Nle][2Nal]-OH
SMILES: CCCCCCCCCCCCC(=O)N[C@@H](CCC(=O)NCCOCCOCC(=O)NCCOCCOCC(=O)N[C@@H](CCCN)C(=O)N[C@@H](Cc1ccccc1)C(=O)N[C@@H](CCCCNC(=N)N)C(=O)N[C@@H](CCCCNC(=N)N)C(=O)N[C@@H](CCC(N)=O)C(=O)N[C@@H](CCCNC(=N)N)C(=O)N1CCC[C@H]1C(=O)N[C@@H](CCCCNC(=N)N)C(=O)N(C)[C@@H](CC(C)C)C(=O)N[C@@H](CO)C(=O)N[C@@H](Cc1c[nH]cn1)C(=O)N[C@@H](CCCCN)C(=O)NCC(=O)N1[C@H](C(=O)N[C@@H](CCCC)C(=O)N[C@@H](Cc2ccc3ccccc3c2)C(=O)O)C[C@@H]2CCCC[C@@H]21)C(=O)O
EC50 Human APJ Receptor (human APJ receptor): 1.49 nM | EC50 Rat APJ Receptor (rat APJ receptor): 3.14 nM

B5: apelin polypeptide SEQ ID NO: 261 (peptide)
peptide: Tridecanoyl-[γGlu][AEEA][AEEA][hArg][dR]Q[hArg]P[dR][NMeL]SHKG[Oic][Phe(4-I)]P[dBip]-OH
SMILES: CCCCCCCCCCCCC(=O)N[C@@H](CCC(=O)NCCOCCOCC(=O)NCCOCCOCC(=O)N[C@@H](CCCCNC(=N)N)C(=O)N[C@H](CCCNC(=N)N)C(=O)N[C@@H](CCC(N)=O)C(=O)N[C@@H](CCCCNC(=N)N)C(=O)N1CCC[C@H]1C(=O)N[C@H](CCCNC(=N)N)C(=O)N(C)[C@@H](CC(C)C)C(=O)N[C@@H](CO)C(=O)N[C@@H](Cc1c[nH]cn1)C(=O)N[C@@H](CCCCN)C(=O)NCC(=O)N1[C@H](C(=O)N[C@@H](Cc2ccc(I)cc2)C(=O)N2CCC[C@H]2C(=O)N[C@H](Cc2ccc(-c3ccccc3)cc2)C(=O)O)C[C@@H]2CCCC[C@@H]21)C(=O)O
EC50 Human APJ Receptor (human APJ receptor): 4.74 nM | EC50 Rat APJ Receptor (rat APJ receptor): 9.38 nM

B6: apelin polypeptide SEQ ID NO: 243 (peptide)
peptide: Heptadecanoyl-[γGlu][AEEA][AEEA][hArg]Q[dR]P[NMeR][Cha]SHKG[Oic][Nle]P[Tic]-OH
SMILES: CCCCCCCCCCCCCCCCC(=O)N[C@@H](CCC(=O)NCCOCCOCC(=O)NCCOCCOCC(=O)N[C@@H](CCCCNC(=N)N)C(=O)N[C@@H](CCC(N)=O)C(=O)N[C@H](CCCNC(=N)N)C(=O)N1CCC[C@H]1C(=O)N(C)[C@@H](CCCNC(=N)N)C(=O)N[C@@H](CC1CCCCC1)C(=O)N[C@@H](CO)C(=O)N[C@@H](Cc1c[nH]cn1)C(=O)N[C@@H](CCCCN)C(=O)NCC(=O)N1[C@H](C(=O)N[C@@H](CCCC)C(=O)N2CCC[C@H]2C(=O)N2Cc3ccccc3C[C@H]2C(=O)O)C[C@@H]2CCCC[C@@H]21)C(=O)O
EC50 Human APJ Receptor (human APJ receptor): 1.19 nM | EC50 Rat APJ Receptor (rat APJ receptor): 10.3 nM

B7: apelin polypeptide SEQ ID NO: 260 (peptide)
peptide: {C18 diacid}-[γGlu][AEEA][AEEA][Orn]F[hArg][hArg]QRP[hArg][NMeL]SHKG[Oic][Nle][2Nal]-OH
SMILES: CCCC[C@H](NC(=O)[C@@H]1C[C@@H]2CCCC[C@@H]2N1C(=O)CNC(=O)[C@H](CCCCN)NC(=O)[C@H](Cc1c[nH]cn1)NC(=O)[C@H](CO)NC(=O)[C@H](CC(C)C)N(C)C(=O)[C@H](CCCCNC(=N)N)NC(=O)[C@@H]1CCCN1C(=O)[C@H](CCCNC(=N)N)NC(=O)[C@H](CCC(N)=O)NC(=O)[C@H](CCCCNC(=N)N)NC(=O)[C@H](CCCCNC(=N)N)NC(=O)[C@H](Cc1ccccc1)NC(=O)[C@H](CCCN)NC(=O)COCCOCCNC(=O)COCCOCCNC(=O)CC[C@H](NC(=O)CCCCCCCCCCCCCCCCC(=O)O)C(=O)O)C(=O)N[C@@H](Cc1ccc2ccccc2c1)C(=O)O
EC50 Human APJ Receptor (human APJ receptor): 48.5 nM | EC50 Rat APJ Receptor (rat APJ receptor): 75 nM

Ac-[hArg][hArg][dQ][hArg]P[dR][NMeL]SHKG[Oic][Phe(4-I)]P[dBip]-OH [apelin polypeptide SEQ ID NO: 19]
EC50 Human APJ Receptor (human APJ receptor): 0.533 nM | EC50 Rat APJ Receptor (rat APJ receptor): 0.757 nM

B8: apelin polypeptide SEQ ID NO: 259 (peptide)
peptide: Heptadecanoyl-[γGlu][AEEA][AEEA][Orn]F[hArg][hArg]QRP[hArg][NMeL]SHKG[Oic][Nle][2Nal]-OH
SMILES: CCCCCCCCCCCCCCCCC(=O)N[C@@H](CCC(=O)NCCOCCOCC(=O)NCCOCCOCC(=O)N[C@@H](CCCN)C(=O)N[C@@H](Cc1ccccc1)C(=O)N[C@@H](CCCCNC(=N)N)C(=O)N[C@@H](CCCCNC(=N)N)C(=O)N[C@@H](CCC(N)=O)C(=O)N[C@@H](CCCNC(=N)N)C(=O)N1CCC[C@H]1C(=O)N[C@@H](CCCCNC(=N)N)C(=O)N(C)[C@@H](CC(C)C)C(=O)N[C@@H](CO)C(=O)N[C@@H](Cc1c[nH]cn1)C(=O)N[C@@H](CCCCN)C(=O)NCC(=O)N1[C@H](C(=O)N[C@@H](CCCC)C(=O)N[C@@H](Cc2ccc3ccccc3c2)C(=O)O)C[C@@H]2CCCC[C@@H]21)C(=O)O
EC50 Human APJ Receptor (human APJ receptor): 2.59 nM | EC50 Rat APJ Receptor (rat APJ receptor): 2.09 nM

B9: apelin polypeptide SEQ ID NO: 263 (peptide)
peptide: Heptadecanoyl-[γGlu][AEEA][AEEA][hArg][dR]Q[hArg]P[dR][NMeL]SHKG[Oic][Phe(4-I)]P[dBip]-OH
SMILES: CCCCCCCCCCCCCCCCC(=O)N[C@@H](CCC(=O)NCCOCCOCC(=O)NCCOCCOCC(=O)N[C@@H](CCCCNC(=N)N)C(=O)N[C@H](CCCNC(=N)N)C(=O)N[C@@H](CCC(N)=O)C(=O)N[C@@H](CCCCNC(=N)N)C(=O)N1CCC[C@H]1C(=O)N[C@H](CCCNC(=N)N)C(=O)N(C)[C@@H](CC(C)C)C(=O)N[C@@H](CO)C(=O)N[C@@H](Cc1c[nH]cn1)C(=O)N[C@@H](CCCCN)C(=O)NCC(=O)N1[C@H](C(=O)N[C@@H](Cc2ccc(I)cc2)C(=O)N2CCC[C@H]2C(=O)N[C@H](Cc2ccc(-c3ccccc3)cc2)C(=O)O)C[C@@H]2CCCC[C@@H]21)C(=O)O
EC50 Human APJ Receptor (human APJ receptor): 3.99 nM | EC50 Rat APJ Receptor (rat APJ receptor): 5.91 nM

B10: apelin polypeptide SEQ ID NO: 258 (peptide)
peptide: Pentadecanoyl-[γGlu][AEEA][AEEA][Orn]F[hArg][hArg]QRP[hArg][NMeL]SHKG[Oic][Nle][2Nal]-OH
SMILES: CCCCCCCCCCCCCCC(=O)N[C@@H](CCC(=O)NCCOCCOCC(=O)NCCOCCOCC(=O)N[C@@H](CCCN)C(=O)N[C@@H](Cc1ccccc1)C(=O)N[C@@H](CCCCNC(=N)N)C(=O)N[C@@H](CCCCNC(=N)N)C(=O)N[C@@H](CCC(N)=O)C(=O)N[C@@H](CCCNC(=N)N)C(=O)N1CCC[C@H]1C(=O)N[C@@H](CCCCNC(=N)N)C(=O)N(C)[C@@H](CC(C)C)C(=O)N[C@@H](CO)C(=O)N[C@@H](Cc1c[nH]cn1)C(=O)N[C@@H](CCCCN)C(=O)NCC(=O)N1[C@H](C(=O)N[C@@H](CCCC)C(=O)N[C@@H](Cc2ccc3ccccc3c2)C(=O)O)C[C@@H]2CCCC[C@@H]21)C(=O)O
EC50 Human APJ Receptor (human APJ receptor): 1.75 nM | EC50 Rat APJ Receptor (rat APJ receptor): 2.57 nM
